Experimental data published in patent publication US20210079060A1 (ALETA BIOTHERAPEUTICS, published 2021).
Substitutions are numbered along the chain they refer to. Values joined by “and” are separate entries in the source; they are usually repeats but may differ in a detail not shown here. Equal values may be shown once. Read-outs that look alike come from different tables or passages of the source. Each block holds one binder with its values, some of them ahead of it.

Assays:
Clec12A [1] = target: T1, Clec12A (human, UniProt Q5QGZ9 1-265); experiment: sandwich ELISA: coated with FMC63, construct titrated (x-axis ug/ml), followed by Clec12A-bio, detected by HRP-SA
T1 construct: whole, on cells; also called CLL-1; MICL
T1 sequence (looked up): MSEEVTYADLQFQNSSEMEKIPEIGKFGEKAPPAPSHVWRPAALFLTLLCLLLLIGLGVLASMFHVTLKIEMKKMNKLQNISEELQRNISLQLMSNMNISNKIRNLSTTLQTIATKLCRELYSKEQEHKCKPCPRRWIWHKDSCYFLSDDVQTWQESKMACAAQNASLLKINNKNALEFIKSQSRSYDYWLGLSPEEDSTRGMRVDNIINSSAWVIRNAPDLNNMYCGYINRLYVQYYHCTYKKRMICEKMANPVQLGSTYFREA

Clec12A [2] = target: T1, Clec12A; experiment: FACS on Clec12A expressing U937 cells, detected with a-His-PE
Clec12A [3] = target: T1, Clec12A; experiment: FACS on Clec12A expressing U937 cells, detected with FMC63-PE
Clec12A [4] = target: T1, Clec12A; experiment: binding to U937 cells; supernatant
Clec12A [5] = target: T1, Clec12A; experiment: binding to U937 cells; supernatant; MW = 46kDa
Clec12A [6] = target: T1, Clec12A; experiment: sandwich ELISA as for the other curves; the curve stays near 0.13 up to about 0.33 ug/ml and reaches only about 0.18 at 1 ug/ml (fit A 0.13, D 0.202)
EGFR = target: T2, EGFR (UniProt P00533 25-1210, limits assumed); experiment: binding to EGFR positive cells (data not shown)
T2 construct: whole, on cells; also called EGFR positive cells; EGFR positive H292 cells

CD20 = target: T3, CD20 (UniProt P11836 1-297, limits assumed); experiment: FACS on 293T cells transfected with CD20, FMC63-PE detection
T3 construct: whole, on cells; also called CD20 positive HEK293 cells
T3 sequence (looked up): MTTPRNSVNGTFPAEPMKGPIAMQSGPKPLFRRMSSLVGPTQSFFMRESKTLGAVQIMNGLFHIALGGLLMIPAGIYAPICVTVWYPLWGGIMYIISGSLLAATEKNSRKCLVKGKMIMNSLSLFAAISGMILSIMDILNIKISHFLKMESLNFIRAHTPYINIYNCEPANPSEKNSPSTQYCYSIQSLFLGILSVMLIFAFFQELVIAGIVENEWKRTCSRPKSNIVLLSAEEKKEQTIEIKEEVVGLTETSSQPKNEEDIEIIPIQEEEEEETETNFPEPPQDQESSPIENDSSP

Clec12A [7] = target: T1, Clec12A; experiment: sandwich ELISA as for the other curves; the curve still rises at 1 ug/ml (about 1.33), no upper plateau; fit D 1.55
Clec12A [8] = target: T1, Clec12A; experiment: FACS on Clec12A-expressing U937 cells, % Binding against concentration, detected with FMC63-PE; molar value with printed MW 43.7 kDa
Description: (§1) In addition, bispecific constructs were generated and assayed. […] These constructs were assayed for binding to U937 cells. […] Cells were then spun, washed twice, fixed, and analyzed by FACS.

Clec12A [9] = target: T1, Clec12A; experiment: sandwich ELISA: coated with FMC63, construct titrated (x-axis ug/ml), followed by Clec12A-bio, detected by HRP-SA; remark: listed apart in the source
Clec12A [10] = target: T1, Clec12A; experiment: FACS on Clec12A-expressing U937 cells, % Binding against concentration, detected with FMC63-PE
Description: as §1

B1: CD19 ECD N term mutant #2-G4Sx4-anti CLEC12a VHH 1B12-His (VHH)
chain: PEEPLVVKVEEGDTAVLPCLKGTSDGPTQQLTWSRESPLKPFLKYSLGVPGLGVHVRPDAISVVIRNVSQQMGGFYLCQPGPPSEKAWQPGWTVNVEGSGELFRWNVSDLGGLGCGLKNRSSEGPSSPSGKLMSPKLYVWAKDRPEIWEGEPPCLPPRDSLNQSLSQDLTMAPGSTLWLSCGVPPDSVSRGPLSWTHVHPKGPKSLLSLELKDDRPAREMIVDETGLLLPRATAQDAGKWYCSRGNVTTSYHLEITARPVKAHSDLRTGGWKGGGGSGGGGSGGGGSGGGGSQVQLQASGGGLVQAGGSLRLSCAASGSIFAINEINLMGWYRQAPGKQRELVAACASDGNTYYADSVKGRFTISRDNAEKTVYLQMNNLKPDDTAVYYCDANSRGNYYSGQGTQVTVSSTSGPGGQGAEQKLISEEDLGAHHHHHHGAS
notes: CD19 variant-VHH fusion; also called CD19-VHH1B12/Clec12A
C of the 4-P fit (midpoint) (Clec12A [1]): 0.00403 µg/mL
EC50 (Clec12A [1]): 0.004 µg/mL and 0.086 nM
EC50 (Clec12A [2]): 0.233 µg/mL and 4.96 nM
EC50 (Clec12A [3]): 0.155 µg/mL and 3.3 nM

B2: CD19 mutant #2-G4Sx4-anti CLEC12a VHH 2F5-myc-His (VHH)
chain: B1 chain with A298Q, V304A, A306T, R311I
notes: CD19 variant-VHH fusion
EC50 (Clec12A [4]): 0.151 µg/mL
C of the 4-P fit (midpoint) (Clec12A [1]): 0.00983 µg/mL
EC50 (Clec12A [1]): 0.0098 µg/mL and 0.21 nM
EC50 (Clec12A [5]): 3.29 nM

B3: #331 (VHH)
VHH: QVQLQQSGGGLVQAGGSLTLSCAATGRTIDNGAMAWFRQAPGKQRELVAAINWSGGATFYTDSVKYRFTISRDNVRHTLDLQMTSLKPEDTTIYFCASRRGVDLRRNSYEYDYWGRGTLVTVSS
notes: also called anti CLEC12a VHH 2C2-G4Sx4-CD19 C-term mutant #2-His
EC50 (Clec12A [6]): 0.698 µg/mL and 15 nM

B5: CD19 D1+2-anti-CD20 scFv (VH/VL) (scFv)
chain: PEEPLVVKVEEGDNAVLQCLKGTSDGPTQQLTWSRESPLKPFLKLSLGLPGLGIHMRPLAIWLFIFNVSQQMGGFYLCQPGPPSEKAWQPGWTVNVEGSGELFRWNVSDLGGLGCGLKNRSSEGPSSPSGKLMSPKLYVWAKDRPEIWEGEPPCLPPRDSLNQSLSQDLTMAPGSTLWLSCGVPPDSVSRGPLSWTHVHPKGPKSLLSLELKDDRPARDMWVMETGLLLPRATAQDAGKYYCHRGNLTMSFHLEITARPGGGGSGGGGSGGGGSGGGGSMAQVKLQESGAELVKPGASVKMSCKASGYTFTSYNMHWVKQTPGQGLEWIGAIYPGNGDTSYNQKFKGKATLTADKSSSTAYMQLSSLTSEDSADYYCARSNYYGSSYWFFDVWGQGTTVTVSSGGGGSGGGGSGGGGSDIELTQSPTILSASPGEKVTMTCRASSSVNYMDWYQKKPGSSPKPWIYATSNLASGVPARFSGSGSGTSYSLTISRVEAEDAATYYCQQWSFNPPTFGGGTKLEIKRAAAHHHHHH
notes: Wild type CD19 D1+D2 N-terminal to the Leu16 scFv; also called construct #83; wild type CD19 D1+D2 fusion protein
EC50 (CD20): 0.379 µg/mL and 6.68 nM

B7: #328 (VHH)
VHH: QVQLQESGGGLVQPGGSLRLSCAASGFTFNSYAMTWVRQAPGKGLEWVSDINSGGGSTNYADSVKGRFTISRDNAKNTLYLQMNSLKPEDTAVYYCATELRGSDYYRGPIREYAYWGQGTLVTVSS
notes: also called anti CLEC12a VHH 1H1-G4Sx4-CD19 C-term mutant #2-His
EC50 (Clec12A [7]): 0.155 µg/mL and 3.33 nM

Second part, the binder after the results:

binding result (EGFR): binds
B4: CD19 ECD N term mutant#1-EGFR Fn3 (designed binder)
chain: PEEPLVVKVEEGDDAWLRCLKGTSDGPTSQVTWSRESPLKPFLKYSLGVPGLGVHIRPLAIGLVIPNVSQQMGGFYLCQPGPPSEKAWQPGWTVNVEGSGELFRWNVSDLGGLGCGLKNRSSEGPSSPSGKLMSPKLYVWAKDRPEIWEGEPPCLPPRDSLNQSLSQDLTMAPGSTLWLSCGVPPDSVSRGPLSWTHVHPKGPKSLLSLELKDDRPAREMIVDETGLLLPRATAQDAGKYYCHRGNRTISYHLEITARPVSAHTPLRTGGWKGGGGSGGGGSGGGGSGGGGSVSDVPRDLEVVAATPTSLLISWFDYAVTYYRITYGETGGNSPVQEFTVPGWISTATISGLKPGVDYTITVYAVTDNSHWPFRSTPISTNYRTEIDKPPQHHHHHH
notes: also called construct #227; CD19-Fn3/EGFR

binding result (EGFR): binds
B6: CD19 ECD N term mutant#-EGFR Fn3 (designed binder)
chain: PEEPLVVKVEEGDTAALWCLKGTSDGPTQQLTWSRESPLKPFLKYSLGVPGMGVHVRPNAVSLVISNVSQQMGGFYLCQPGPPSEKAWQPGWTVNVEGSGELFRWNVSDLGGLGCGLKNRSSEGPSSPSGKLMSPKLYVWAKDRPEIWEGEPPCLPPRDSLNQSLSRDMTVAPGSTLWLSCGVPPDSVSRGPLSWTHVHPKGPKSLLSLELKDDRPARDMWVMETGLVLPRATAQDAGKWYCHRGNVTTSYHLEITARPVSAHTPLRTGGWKGGGGSGGGGSGGGGSGGGGSVSDVPRDLEVVAATPTSLLISWFDYAVTYYRITYGETGGNSPVQEFTVPGWISTATISGLKPGVDYTITVYAVTDNSHWPFRSTPISTNYRTEIDKPPQHHHHHH
notes: Fusion protein; also called construct #230; CD19-Fn3/EGFR

binding result (EGFR): binds
B8: CD19 ECD N term mutant#3-EGFR Fn3 (designed binder)
chain: PEEPLVVKVEEGDTAALWCLKGTSDGPTQQLTWSRESPLKPFLKLSLGLPGMGVHMRPGAVSAVISNVSQQMGGFYLCQPGPPSEKAWQPGWTVNVEGSGELFRWNVSDLGGLGCGLKNRSSEGPSSPSGKLMSPKLYVWAKDRPEIWEGEPPCLPPRDSLNQSLSRDMTVAPGSTLWLSCGVPPDSVSRGPLSWTHVHPKGPKSLLSLELKDDRPARDMWVMGTSLILPRATAQDAGKYYCHRGNLTMSFHLEVVARPVKAHSDLRTGGWKGGGGSGGGGSGGGGSGGGGSVSDVPRDLEVVAATPTSLLISWFDYAVTYYRITYGETGGNSPVQEFTVPGWISTATISGLKPGVDYTITVYAVTDNSHWPFRSTPISTNYRTEIDKPPQHHHHHH
notes: Fusion protein; also called construct #229; CD19-Fn3/EGFR

binding result (EGFR): binds
B9: CD19 ECD N term mutant#2-EGFR Fn3 (designed binder)
chain: PEEPLVVKVEEGDTAVLPCLKGTSDGPTQQLTWSRESPLKPFLKYSLGVPGLGVHVRPDAISVVIRNVSQQMGGFYLCQPGPPSEKAWQPGWTVNVEGSGELFRWNVSDLGGLGCGLKNRSSEGPSSPSGKLMSPKLYVWAKDRPEIWEGEPPCLPPRDSLNQSLSQDLTMAPGSTLWLSCGVPPDSVSRGPLSWTHVHPKGPKSLLSLELKDDRPAREMIVDETGLLLPRATAQDAGKWYCSRGNVTTSYHLEITARPVKAHSDLRTGGWKGGGGSGGGGSGGGGSGGGGSVSDVPRDLEVVAATPTSLLISWFDYAVTYYRITYGETGGNSPVQEFTVPGWISTATISGLKPGVDYTITVYAVTDNSHWPFRSTPISTNYRTEIDKPPQHHHHHH
notes: Fusion protein; also called CD19-Fn3/EGFR

EC50 (Clec12A [8]): 1.03 nM
EC50 (Clec12A [2]): 0.0446 µg/mL and 0.95 nM
EC50 (Clec12A [3]): 0.0723 µg/mL and 1.54 nM
C of the 4-P fit (midpoint) (Clec12A [9]): 0.0168 µg/mL
EC50 (Clec12A [9]): 0.0168 µg/mL and 0.361 nM
EC50 (Clec12A [10]): 0.0449 µg/mL
EC50 (read off the curve) (Clec12A [10]): ~0.05 µg/mL
B10: anti-CLEC12a VHH 2H3-CD19 D1+2 C term mutant #2 (VHH)
VHH: QVQLQESGGGLVQAGGSLRLSCVASGSIRSINVMGWYRQAPGKQRELVAACASDGNTYYADSVKGRFTISRDNAEKTVYLQMNNLKPDDTAVYYCDANSRGNYYSGQGTQVTVSS
notes: also called construct #330
